In one assay the test system is DYT-TOR1A MEF EVs. Nature of the assay: Quantitative LC-MS/MS proteomics of EVs from drug-treated DYT-TOR1A MEF cultures (ritonavir, salubrinal). Type of assay: cell-based, mouse. Further details: key to RTV Corrective Direction / RTV Corrective Direction, Grwd1 / RTV Corrective Direction, Srrm2 / RTV Corrective Direction, Rbm17 / RTV Corrective Direction, Dcaf8 / RTV Corrective Direction, Edil3 / RTV Corrective Direction, Timp3 / RTV Corrective Direction, Heatr3 / RTV Corrective Direction, Brd4 / RTV Corrective Direction, P3h4 / RTV Corrective Direction, Pacsin3 / RTV Corrective Direction, Naa50 / RTV Corrective Direction, Lpar6 / RTV Corrective Direction, Ndrg1 / RTV Corrective Direction, Kntc1 / RTV Corrective Direction, Cdk11b / RTV Corrective Direction, Sumo1 / RTV Corrective Direction, Lsm4 / RTV Corrective Direction, Hmga2 / RTV Corrective Direction, Cstf1 / RTV Corrective Direction, Tes / RTV Corrective Direction, Sbno1 / RTV Corrective Direction, Unc119b / RTV Corrective Direction, Cfdp1 / RTV Corrective Direction, Sec61b: YES = protein abundance effect opposite to DYT/WT. Particulars: EV protein abundance; for RTV Corrective Direction: DYT + RTV (ritonavir) vs DYT, direction compared with DYT/WT; for DYT + RTV/DYT Cohen's d: ritonavir (RTV)-treated DYT vs DYT.

The subject of a further assay is WT MEF EVs. Nature of the assay: Quantitative LC-MS/MS proteomics of EVs from ISRIB-treated WT MEF cultures. The format is cell-based, mouse. Further details: key to ISRIB and DYT Parallel Direction / ISRIB and DYT Parallel Direction, Ctdsp1 / ISRIB and DYT Parallel Direction, Pcdh19 / ISRIB and DYT Parallel Direction, Tspan7 / ISRIB and DYT Parallel Direction, Myo1e / ISRIB and DYT Parallel Direction, Plpp3 / ISRIB and DYT Parallel Direction, Sh3bp4 / ISRIB and DYT Parallel Direction, Dnajc7 / ISRIB and DYT Parallel Direction, Drg1 / ISRIB and DYT Parallel Direction, Maea: YES = protein abundance effect similar to DYT/WT. Particulars: EV protein abundance; for WT + ISRIB/WT Cohen's d: ISRIB-treated WT vs WT; for ISRIB and DYT Parallel Direction: WT + ISRIB vs WT, direction compared with DYT/WT.

The record followed here is patent US20260266848A1, “COMPOSITIONS AND METHODS FOR DIAGNOSING AND TREATING DYSTONIA” (Duke University, priority 2023, published 2026).

B1: Slc44a1 (protein, UniProt Q6X893 2-653, looked up)
Choline transporter-like …: GCCSSASAAQSSKREWKPLEDRSCTDIPWLLLFVLFCIGMGFICGFSVATGAAARLVSGYDSYGNICGQRNAKLEAIPNSGLDHTHRKYVFFLDPCNLDLINRKIKSIALCVAACPRQELKTLSDVQKFAEINGSALCSYNIKPSEYTLTSKSSGFCPKLPVPASAPIPFFHRCAPVNISCYAKFAEALITFVSDNSVLHRLISGVMTSKEIILGLCLLSLVLSMILMVIIRYISRVLVWILTVLVILGSLGGTGVLWWLYAKQRRSPKEAVIPEQLQIAEDNLRALLIYAISATVFTVILFLIMLVMRKRVALTIALFHVAGKVFIHLPLLVFQPFWTFFALVLFWAYWIMTLLFLGTTGSAVQNEQGFVEYKISGPLQYMWWYHVVGLIWISEFILACQQMTVAGAVVTYYFTRDKRNLPFTPILASVNRLIRYHLGTVAKGSFIITLVKIPRMVLMYIHSQLKGKENACARCMLKSCICCLWCLEKCLSYLNQNAYTATAINSTNFCTSAKDAFVILVENALRVAAINTVGDFMLFLGKVLIVCSTGLAGIMLLNYQQDYTVWVLPLIIVCLFAFLVAHCFLSIYEMVVDVLFLCFAIDTKYNDGSPGREFYMDKVLMEFVENSRKAMKEAGKGGAADARELKPMLRKR
Regarding B1, in the assay with DYT-TOR1A MEF EVs, the “RTV Corrective Direction” value was “YES” and the “DYT + RTV/DYT Cohen's d” value worked out at 0.84. Further, the “WT + ISRIB/WT Cohen's d” value in the assay with WT MEF EVs came out at 0.80.

B2: Uba3 (protein, UniProt Q8C878 2-462, looked up)
NEDD8-activating enzyme E1 …: ADGEEPEKKRRRIEELLAEKMAVDGGCGDTGDWEGRWNHVKKFLERSGPFTHPDFEPSTESLQFLLDTCKVLVIGAGGLGCELLKNLALSGFRQIHVIDMDTIDVSNLNRQFLFRPKDVGRPKAEVAAEFLNDRVPNCNVVPHFNKIQDFNDTFYRQFHIIVCGLDSIIARRWINGMLISLLNYEDGVLDPSSIVPLIDGGTEGFKGNARVILPGMTACIECTLELYPPQVNFPMCTIASMPRLPEHCIEYVRMLQWPKEQPFGDGVPLDGDDPEHIQWIFQKSIERASQYNIRGVTYRLTQGVVKRIIPAVASTNAVIAAVCATEVFKIATSAYIPLNNYLVFNDVDGLYTYTFEAERKENCPACSQLPQNIQFSPSAKLQEVLDYLTNSASLQMKSPAITATLEGKNRTLYLQSVTSIEERTRPNLSKTLKELGLVDGQELAVADVTTPQTVLFKLHFT
In the case of B2, in the assay with DYT-TOR1A MEF EVs, the “RTV Corrective Direction” value is “YES” and the “DYT + RTV/DYT Cohen's d” value is recorded as 10.01. In the assay with WT MEF EVs, the “WT + ISRIB/WT Cohen's d” value is given as −1.68; the “ISRIB and DYT Parallel Direction” value is recorded as “YES”.

B3: Apom (protein, UniProt Q9Z1R3 1-190, looked up)
Apolipoprotein M: MFHQVWAALLSLYGLLFNSMNQCPEHSQLTALGMDDTETPEPHLGLWYFIAGAASTTEELATFDPVDNIVFNMAAGSAPRQLQLRATIRTKSGVCVPRKWTYRLTEGKGNMELRTEGRPDMKTDLFSSSCPGGIMLKETGQGYQRFLLYNRSPHPPEKCVEEFQSLTSCLDFKAFLVTPRNQEACPLSSK
On to B3, for which the “DYT + RTV/DYT Cohen's d” value in the assay with DYT-TOR1A MEF EVs turned out to be 0.40. Also, in the assay on WT MEF EVs, the “WT + ISRIB/WT Cohen's d” value stood at 2.53; the “ISRIB and DYT Parallel Direction” value is listed as “YES”.

B4: Esyt1 (protein, UniProt Q3U7R1 1-1092, looked up)
Extended synaptotagmin-1: MEHSPEEGASPEPSGQPPATDSTRDGGSGVPPAGPGAASEALAVLTSFGRRLLVLVPVYLAGAAGLSVGFVLFGLALYLGWRRVRDGKERSLRAARQLLDDEERITAETLYMSHRELPAWVSFPDVEKAEWLNKIVAQVWPFLGQYMEKLLAETVAPAVRGANPHLQTFTFTRVELGEKPLRIIGVKVHPSQRKDQILLDLNVSYVGDVQIDVEVKKYFCKAGVKGMQLHGVLRVILEPLTGDLPIVGAVSMFFIKRPTLDINWTGMTNLLDIPGLSSLSDTMIMDSIAAFLVLPNRLLVPLVPDLQDVAQLRSPLPRGIIRIHLLAARGLSSKDKYVKGLIEGKSDPYALVRVGTQTFCSRVIDEELNPHWGETYEVIVHEVPGQEIEVEVFDKDPDKDDFLGRMKLDVGKVLQAGVLDNWYPLQGGQGQVHLRLEWLSLLPDAEKLDQVLQWNRGITSRPEPPSAAILVVYLDRAQDLPLKKGNKEPNPMVQLSVQDVTRESKATYSTNSPVWEEAFRFFLQDPRSQELDVQVKDDSRALTLGALTLPLARLLTASELTLDQWFQLSSSGPNSRLYMKLVMRILYLDYSEIRFPTVPGAQDWDRESLETGSSVDAPPRPYHTTPNSHFGTENVLRIHVLEAQDLIAKDRFLGGLVKGKSDPYVKLKVAGKSFRTHVVREDLNPRWNEVFEVIVTSIPGQELEIEVFDKDLDKDDFLGRYKVSLTTVLNSGFLDEWLTLEDVPSGRLHLRLERLTPRPTAAELEEVLQVNSLIQTQKSSELAAALLSVFLERAEDLPLRKGTKPPSPYATITVGETSHKTKTVSQSSAPVWEESASFLIRKPHAESLELQVRGEGTGTLGSVSLPLSELLQEDQLCLDHWFALSGQGQVLMRAQLGILVSQHSGVEAHSHSYSHSHSSSSLNDEPEALGGPTHPASPVLEVRHRLTHGDSPSEAPVGPLGQVKLTVWYHSDEQKLISIIHSCRALRQNGRDLPDPYVSVLLLPDKNRSTKRKTPQKKRTLNPEFNERFEWDLPLDGTLRRKLDVSVKSNSSFMSRERELLGKVQLDLAEIDLSQGAAQWYDLMDDRDKGGS
As to B4, in the assay on DYT-TOR1A MEF EVs, the “RTV Corrective Direction” value is “YES” and the “DYT + RTV/DYT Cohen's d” value amounted to 1.25. Further, in the assay on WT MEF EVs, the “WT + ISRIB/WT Cohen's d” value is recorded as 0.18.

B5: Scarb2 (protein, UniProt Q14108 1-478, looked up)
Lysosome membrane protein 2: MGRCCFYTAGTLSLLLLVTSVTLLVARVFQKAVDQSIEKKIVLRNGTEAFDSWEKPPLPVYTQFYFFNVTNPEEILRGETPRVEEVGPYTYRELRNKANIQFGDNGTTISAVSNKAYVFERDQSVGDPKIDLIRTLNIPVLTVIEWSQVHFLREIIEAMLKAYQQKLFVTHTVDELLWGYKDEILSLIHVFRPDISPYFGLFYEKNGTNDGDYVFLTGEDSYLNFTKIVEWNGKTSLDWWITDKCNMINGTDGDSFHPLITKDEVLYVFPSDFCRSVYITFSDYESVQGLPAFRYKVPAEILANTSDNAGFCIPEGNCLGSGVLNVSICKNGAPIIMSFPHFYQADERFVSAIEGMHPNQEDHETFVDINPLTGIILKAAKRFQINIYVKKLDDFVETGDIRTMVFPVMYLNESVHIDKETASRLKSMINTTLIITNIPYIIMALGVFFGLVFTWLACKGQGSMDEGTADERAPLIRT
As to B5, in the assay on DYT-TOR1A MEF EVs, the “RTV Corrective Direction” value is reported as “YES” and the “DYT + RTV/DYT Cohen's d” value stood at 0.24. In the assay with WT MEF EVs, the “WT + ISRIB/WT Cohen's d” value is given as 0.09.

B6: Ilf3 (protein, UniProt Q9Z1X4 1-898, looked up)
Interleukin enhancer-binding …: MRPMRIFVNDDRHVMAKHSSVYPTQEELEAVQNMVSHTERALKAVSDWIDEQEKGNSELSEAENMDTPPDDESKEGAGEQKAEHMTRTLRGVMRVGLVAKGLLLKGDLDLELVLLCKEKPTTALLDKVADNLAIQLTTVTEDKYEILQSVDDAAIVIKNTKEPPLSLTIHLTSPVVREEMEKVLAGETLSVNDPPDVLDRQKCLAALASLRHAKWFQARANGLKSCVIVIRVLRDLCTRVPTWGPLRGWPLELLCEKSIGTANRPMGAGEALRRVLECLASGIVMPDGSGIYDPCEKEATDAIGHLDRQQREDITQSAQHALRLAAFGQLHKVLGMDPLPSKMPKKPKNENPVDYTVQIPPSTTYAITPMKRPMEEDGEEKSPSKKKKKIQKKEEKADPPQAMNALMRLNQLKPGLQYKLISQTGPVHAPIFTMSVEVDGSNFEASGPSKKTAKLHVAVKVLQDMGLPTGAEGRDSSKGEDSAEESDGKPAIVAPPPVVEAVSNPSSVFPSDATTEQGPILTKHGKNPVMELNEKRRGLKYELISETGGSHDKRFVMEVEVDGQKFQGAGSNKKVAKAYAALAALEKLFPDTPLALEANKKKRTPVPVRGGPKFAAKPHNPGFGMGGPMHNEVPPPPNIRGRGRGGNIRGRGRGRGFGGANHGGGYMNAGAGYGSYGYSSNSATAGYSQFYSNGGHSGNAGGGGSGGGGGSSSYSSYYQGDSYNSPVPPKHAGKKPLHGGQQKASYSSGYQSHQGQQQPYNQSQYSSYGTPQGKQKGYGHGQGSYSSYSNSYNSPGGGGGSDYSYDSKFNYSGSGGRSGGNSYGSSGSSSYNTGSHGGYGTGSGGSSSYQGKQGGYSSQSNYSSPGSSQSYSGPASSYQSSQGGYSRNTEHSMNYQYR
Regarding B6, the “DYT + RTV/DYT Cohen's d” value in the assay on DYT-TOR1A MEF EVs is −1.23. In the assay with WT MEF EVs, the “WT + ISRIB/WT Cohen's d” value was −4.89; the “ISRIB and DYT Parallel Direction” value is recorded as “YES”.

B7: Itgb3 (protein, UniProt O54890 26-787, looked up)
Integrin beta-3: ESNICTTRGVNSCQQCLAVSPVCAWCSDETLSQGSPRCNLKENLLKDNCAPESIEFPVSEAQILEARPLSSKGSGSSAQITQVSPQRIALRLRPDDSKIFSLQVRQVEDYPVDIYYLMDLSFSMKDDLSSIQTLGTKLASQMRKLTSNLRIGFGAFVDKPVSPYMYISPPQAIKNPCYNMKNACLPMFGYKHVLTLTDQVSRFNEEVKKQSVSRNRDAPEGGFDAIMQATVCDEKIGWRNDASHLLVFTTDAKTHIALDGRLAGIVLPNDGHCHIGTDNHYSASTTMDYPSLGLMTEKLSQKNINLIFAVTENVVSLYQNYSELIPGTTVGVLSDDSSNVLQLIVDAYGKIRSKVELEVRDLPEELSLSFNATCLNNEVIPGLKSCVGLKIGDTVSFSIEAKVRGCPQEKEQSFTIKPVGFKDSLTVQVTFDCDCACQAFAQPSSPRCNNGNGTFECGVCRCDQGWLGSMCECSEEDYRPSQQEECSPKEGQPICSQRGECLCGQCVCHSSDFGKITGKYCECDDFSCVRYKGEMCSGHGQCNCGDCVCDSDWTGYYCNCTTRTDTCMSTNGLLCSGRGNCECGSCVCVQPGSYGDTCEKCPTCPDACSFKKECVECKKFNRGTLHEENTCSRYCRDDIEQVKELTDTGKNAVNCTYKNEDDCVVRFQYYEDTSGRAVLYVVEEPECPKGPDILVVLLSVMGAILLIGLATLLIWKLLITIHDRKEFAKFEEERARAKWDTANNPLYKEATSTFTNITYRGT
As to B7, in the assay with DYT-TOR1A MEF EVs, the “RTV Corrective Direction” value is “YES” and the “DYT + RTV/DYT Cohen's d” value turned out to be 1.96. In addition, the “WT + ISRIB/WT Cohen's d” value in the assay with WT MEF EVs came to 0.14.
